Experimental data from article PMC9482650, “Quantitative fragmentomics allow affinity mapping of interactomes” (Nature Communications, 2022).

What follows are binders tested against T1, HTRA4, P83105 (assay: holdup assay). Conditions: plain residues with an end cap or a label only (N-terminal biotin on a linker: ado-ado).
T1 sequence (P83105 378-476, limits assumed, looked up): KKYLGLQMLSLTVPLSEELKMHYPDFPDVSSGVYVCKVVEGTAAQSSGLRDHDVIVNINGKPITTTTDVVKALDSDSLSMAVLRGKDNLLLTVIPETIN
Set-up: key: below the threshold = too weak to quantify, mostly under pKd 3.1 to 4
A pKd of 3.48 was found for QYPGSPDSWV [PKP4, Q99569] in this work.

What follows are binders tested against TJP1_3, Q07157 (assay: holdup assay). Conditions: plain residues with an end cap or a label only (N-terminal biotin on a linker: ado-ado).
Sequence of TJP1_3, Q07157 (Q07157 416-512): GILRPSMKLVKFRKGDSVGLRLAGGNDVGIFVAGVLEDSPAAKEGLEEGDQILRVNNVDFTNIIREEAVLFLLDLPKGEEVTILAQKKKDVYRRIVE
Set-up: key: below the threshold = too weak to quantify, mostly under pKd 3.1 to 4
A pKd of 3.68 was found for QYPGSPDSWV [PKP4, Q99569] in this work.

The binders below were run against T2, ARHGAP21, Q5T5U3 (assay: holdup assay). Conditions: plain residues with an end cap or a label only (N-terminal biotin on a linker: ado-ado).
T2 sequence (Q5T5U3 45-169, limits assumed, looked up): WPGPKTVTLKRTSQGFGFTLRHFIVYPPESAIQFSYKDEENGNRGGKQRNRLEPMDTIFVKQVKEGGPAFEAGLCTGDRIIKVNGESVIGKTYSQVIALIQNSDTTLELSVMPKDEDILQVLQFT
Set-up: key: below the threshold = too weak to quantify, mostly under pKd 3.1 to 4
A pKd of 3.56 was found for QYPGSPDSWV [PKP4, Q99569] in this work.

The binders below were run against NHERF2_2, Q15599 (assay: holdup assay). Conditions: plain residues with an end cap or a label only (N-terminal biotin on a linker: ado-ado).
Sequence of NHERF2_2, Q15599 (Q15599 142-238): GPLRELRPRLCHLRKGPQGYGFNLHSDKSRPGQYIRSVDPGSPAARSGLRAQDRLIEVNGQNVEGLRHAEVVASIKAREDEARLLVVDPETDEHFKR
Set-up: key: below the threshold = too weak to quantify, mostly under pKd 3.1 to 4
In the case of QYPGSPDSWV [PKP4, Q99569], the pKd is reported as “below the threshold”.

Each binder was assayed against T3, GRIP1_7, Q9Y3R0 (assay: holdup assay). Conditions: plain residues with an end cap or a label only (N-terminal biotin on a linker: ado-ado).
T3 sequence (Q9Y3R0 999-1096, limits assumed, looked up): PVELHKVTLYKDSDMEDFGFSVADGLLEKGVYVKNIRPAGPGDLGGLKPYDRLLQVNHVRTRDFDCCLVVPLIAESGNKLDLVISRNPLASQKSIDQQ
Set-up: key: below the threshold = too weak to quantify, mostly under pKd 3.1 to 4
A pKd of 3.7 was found for QYPGSPDSWV [PKP4, Q99569] in this work.

Each binder was assayed against NHERF4_1, Q86UT5-2 (assay: holdup assay). Conditions: plain residues with an end cap or a label only (N-terminal biotin on a linker: ado-ado).
Sequence of NHERF4_1, Q86UT5-2 (Q86UT5 other isoform, or with tags, fused parts or gaps): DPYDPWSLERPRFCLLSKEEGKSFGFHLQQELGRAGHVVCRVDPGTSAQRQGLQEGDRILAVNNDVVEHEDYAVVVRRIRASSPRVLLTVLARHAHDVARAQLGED
Set-up: key: below the threshold = too weak to quantify, mostly under pKd 3.1 to 4
A pKd of 3.57 was found for QYPGSPDSWV [PKP4, Q99569] in this work.

Each binder was assayed against NHERF4_4, Q86UT5 (assay: holdup assay). Conditions: plain residues with an end cap or a label only (N-terminal biotin on a linker: ado-ado).
Sequence of NHERF4_4, Q86UT5 (Q86UT5 464-550): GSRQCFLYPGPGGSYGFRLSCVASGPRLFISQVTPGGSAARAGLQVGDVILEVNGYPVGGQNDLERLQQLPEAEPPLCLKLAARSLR
Set-up: key: below the threshold = too weak to quantify, mostly under pKd 3.1 to 4
In the case of QYPGSPDSWV [PKP4, Q99569], the pKd is reported as “below the threshold”.

The binders below were run against T4, LNX2_2, Q8N448 (assay: holdup assay). Conditions: plain residues with an end cap or a label only (N-terminal biotin on a linker: ado-ado).
T4 sequence (Q8N448 334-432, limits assumed, looked up): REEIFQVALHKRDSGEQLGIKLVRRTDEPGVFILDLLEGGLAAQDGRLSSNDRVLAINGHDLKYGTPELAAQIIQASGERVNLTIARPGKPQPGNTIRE
Set-up: key: below the threshold = too weak to quantify, mostly under pKd 3.1 to 4
A pKd of 4.69 was found for QYPGSPDSWV [PKP4, Q99569] in this work.

These binders were tested against PICK1, Q9NRD5 (assay: holdup assay). Conditions: plain residues with an end cap or a label only (N-terminal biotin on a linker: ado-ado).
Sequence of PICK1, Q9NRD5 (Q9NRD5 17-115): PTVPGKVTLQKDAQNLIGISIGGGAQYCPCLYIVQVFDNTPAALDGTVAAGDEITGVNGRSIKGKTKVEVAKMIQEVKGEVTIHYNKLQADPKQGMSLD
Set-up: key: below the threshold = too weak to quantify, mostly under pKd 3.1 to 4
With QYPGSPDSWV [PKP4, Q99569] the pKd was “below the threshold”.

The binders below were run against T5, LIN7A, O14910 (assay: holdup assay). Conditions: plain residues with an end cap or a label only (N-terminal biotin on a linker: ado-ado).
T5 sequence (O14910 103-200, limits assumed, looked up): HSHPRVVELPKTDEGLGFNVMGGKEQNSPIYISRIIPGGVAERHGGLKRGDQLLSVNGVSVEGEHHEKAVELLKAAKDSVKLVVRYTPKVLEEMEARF
Set-up: key: below the threshold = too weak to quantify, mostly under pKd 3.1 to 4
For QYPGSPDSWV [PKP4, Q99569], the pKd was “below the threshold”.

What follows are binders tested against DLG4_1, P78352 (assay: holdup assay). Conditions: plain residues with an end cap or a label only (N-terminal biotin on a linker: ado-ado).
Sequence of DLG4_1, P78352 (P78352 62-152): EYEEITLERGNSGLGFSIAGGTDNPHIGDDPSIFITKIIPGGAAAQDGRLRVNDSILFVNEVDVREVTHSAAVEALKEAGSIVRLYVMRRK
Set-up: key: below the threshold = too weak to quantify, mostly under pKd 3.1 to 4
A pKd of 4.26 was found for QYPGSPDSWV [PKP4, Q99569] in this work.

Each binder was assayed against Inadl_2, Q8NI35 (assay: holdup assay). Conditions: plain residues with an end cap or a label only (N-terminal biotin on a linker: ado-ado).
Sequence of Inadl_2, Q8NI35 (Q8NI35 238-335): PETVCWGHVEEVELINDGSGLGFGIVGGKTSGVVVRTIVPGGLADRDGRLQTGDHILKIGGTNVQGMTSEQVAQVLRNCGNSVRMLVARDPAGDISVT
Set-up: key: below the threshold = too weak to quantify, mostly under pKd 3.1 to 4
In the case of QYPGSPDSWV [PKP4, Q99569], the pKd is reported as “below the threshold”.

These binders were tested against NOS1, P29475 (assay: holdup assay). Conditions: plain residues with an end cap or a label only (N-terminal biotin on a linker: ado-ado).
Sequence of NOS1, P29475 (P29475 9-101): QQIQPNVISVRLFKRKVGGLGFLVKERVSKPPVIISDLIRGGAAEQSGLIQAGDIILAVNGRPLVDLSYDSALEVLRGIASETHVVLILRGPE
Set-up: key: below the threshold = too weak to quantify, mostly under pKd 3.1 to 4
A pKd of 3.78 was found for QYPGSPDSWV [PKP4, Q99569] in this work.

What follows are binders tested against MAGI1_1, Q96QZ7 (assay: holdup assay). Conditions: plain residues with an end cap or a label only (N-terminal biotin on a linker: ado-ado).
Sequence of MAGI1_1, Q96QZ7 (Q96QZ7 1-106): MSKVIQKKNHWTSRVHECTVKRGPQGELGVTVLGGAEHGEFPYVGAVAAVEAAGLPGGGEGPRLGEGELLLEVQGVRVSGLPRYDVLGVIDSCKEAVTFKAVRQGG
Set-up: key: below the threshold = too weak to quantify, mostly under pKd 3.1 to 4
In the case of QYPGSPDSWV [PKP4, Q99569], the pKd is reported as “below the threshold”.

The binders below were run against T6, TJP3_3, O95049 (assay: holdup assay). Conditions: plain residues with an end cap or a label only (N-terminal biotin on a linker: ado-ado).
T6 sequence (O95049 375-456, limits assumed, looked up): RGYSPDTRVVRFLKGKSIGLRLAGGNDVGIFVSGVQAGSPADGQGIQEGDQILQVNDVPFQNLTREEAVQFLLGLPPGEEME
Set-up: key: below the threshold = too weak to quantify, mostly under pKd 3.1 to 4
A pKd of 4.86 was found for QYPGSPDSWV [PKP4, Q99569] in this work.

The binders below were run against T7, DLG3_3, Q92796 (assay: holdup assay). Conditions: plain residues with an end cap or a label only (N-terminal biotin on a linker: ado-ado).
T7 sequence (Q92796 374-475, limits assumed, looked up): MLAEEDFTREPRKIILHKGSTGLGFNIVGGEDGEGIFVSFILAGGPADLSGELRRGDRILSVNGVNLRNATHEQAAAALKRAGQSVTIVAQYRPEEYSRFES
Set-up: key: below the threshold = too weak to quantify, mostly under pKd 3.1 to 4
QYPGSPDSWV [PKP4, Q99569] was tested, and the pKd was “below the threshold”.

These binders were tested against T8, RAPGEF6, Q8TEU7 (assay: holdup assay). Conditions: plain residues with an end cap or a label only (N-terminal biotin on a linker: ado-ado).
T8 sequence (Q8TEU7 525-625, limits assumed, looked up): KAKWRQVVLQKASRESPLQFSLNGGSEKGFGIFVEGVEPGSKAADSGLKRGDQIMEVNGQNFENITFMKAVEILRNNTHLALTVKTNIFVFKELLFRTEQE
Set-up: key: below the threshold = too weak to quantify, mostly under pKd 3.1 to 4
With QYPGSPDSWV [PKP4, Q99569] the pKd was “below the threshold”.

The binders below were run against GRID2IP_1, A4D2P6 (assay: holdup assay). Conditions: plain residues with an end cap or a label only (N-terminal biotin on a linker: ado-ado).
Sequence of GRID2IP_1, A4D2P6 (A4D2P6 1-87): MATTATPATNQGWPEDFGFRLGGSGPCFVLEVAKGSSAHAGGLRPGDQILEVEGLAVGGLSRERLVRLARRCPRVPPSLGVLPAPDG
Set-up: key: below the threshold = too weak to quantify, mostly under pKd 3.1 to 4
For QYPGSPDSWV [PKP4, Q99569], the pKd was “below the threshold”.

These binders were tested against Inadl_9, Q8NI35 (assay: holdup assay). Conditions: plain residues with an end cap or a label only (N-terminal biotin on a linker: ado-ado).
Sequence of Inadl_9, Q8NI35 (Q8NI35 1530-1615): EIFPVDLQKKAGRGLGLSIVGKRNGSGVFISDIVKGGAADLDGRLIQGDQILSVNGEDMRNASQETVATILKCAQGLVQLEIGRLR
Set-up: key: below the threshold = too weak to quantify, mostly under pKd 3.1 to 4
A pKd of 3.72 was found for QYPGSPDSWV [PKP4, Q99569] in this work.

What follows are binders tested against T9, SNTB1, Q13884 (assay: holdup assay). Conditions: plain residues with an end cap or a label only (N-terminal biotin on a linker: ado-ado).
T9 sequence (Q13884 107-205, limits assumed, looked up): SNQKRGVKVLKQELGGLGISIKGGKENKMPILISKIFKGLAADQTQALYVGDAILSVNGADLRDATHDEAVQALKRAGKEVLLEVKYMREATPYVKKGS
Set-up: key: below the threshold = too weak to quantify, mostly under pKd 3.1 to 4
A pKd of 4.36 was found for QYPGSPDSWV [PKP4, Q99569] in this work.

What follows are binders tested against T10, APBA1_2, Q02410 (assay: holdup assay). Conditions: plain residues with an end cap or a label only (N-terminal biotin on a linker: ado-ado).
T10 sequence (Q02410 742-832, limits assumed, looked up): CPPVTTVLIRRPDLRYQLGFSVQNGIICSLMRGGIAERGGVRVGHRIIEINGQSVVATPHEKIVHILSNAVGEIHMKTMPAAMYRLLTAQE
Set-up: key: below the threshold = too weak to quantify, mostly under pKd 3.1 to 4
A pKd of 4.36 was found for QYPGSPDSWV [PKP4, Q99569] in this work.

What follows are binders tested against GRASP, Q7Z6J2 (assay: holdup assay). Conditions: plain residues with an end cap or a label only (N-terminal biotin on a linker: ado-ado).
Sequence of GRASP, Q7Z6J2 (Q7Z6J2 96-193): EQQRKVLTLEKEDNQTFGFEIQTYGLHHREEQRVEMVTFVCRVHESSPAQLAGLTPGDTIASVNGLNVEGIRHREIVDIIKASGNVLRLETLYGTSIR
Set-up: key: below the threshold = too weak to quantify, mostly under pKd 3.1 to 4
A pKd of 3.52 was found for QYPGSPDSWV [PKP4, Q99569] in this work.

These binders were tested against TJP2_1, Q9UDY2 (assay: holdup assay). Conditions: plain residues with an end cap or a label only (N-terminal biotin on a linker: ado-ado).
Sequence of TJP2_1, Q9UDY2 (Q9UDY2 24-128): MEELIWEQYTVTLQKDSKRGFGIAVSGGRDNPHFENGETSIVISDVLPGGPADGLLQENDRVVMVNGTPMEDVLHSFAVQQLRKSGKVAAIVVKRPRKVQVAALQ
Set-up: key: below the threshold = too weak to quantify, mostly under pKd 3.1 to 4
A pKd of 4.25 was found for QYPGSPDSWV [PKP4, Q99569] in this work.

Each binder was assayed against T11, MPP6, Q9NZW5 (assay: holdup assay). Conditions: plain residues with an end cap or a label only (N-terminal biotin on a linker: ado-ado).
T11 sequence (Q9NZW5 125-219, limits assumed, looked up): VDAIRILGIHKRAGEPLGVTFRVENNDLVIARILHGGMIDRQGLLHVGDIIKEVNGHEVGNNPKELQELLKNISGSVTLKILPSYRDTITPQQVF
Set-up: key: below the threshold = too weak to quantify, mostly under pKd 3.1 to 4
With QYPGSPDSWV [PKP4, Q99569] the pKd was “below the threshold”.

What follows are binders tested against T12, APBA1_1, Q02410 (assay: holdup assay). Conditions: plain residues with an end cap or a label only (N-terminal biotin on a linker: ado-ado).
T12 sequence (Q02410 651-752, limits assumed, looked up): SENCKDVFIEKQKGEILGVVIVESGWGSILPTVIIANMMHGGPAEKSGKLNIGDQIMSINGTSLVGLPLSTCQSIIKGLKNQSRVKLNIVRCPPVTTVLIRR
Set-up: key: below the threshold = too weak to quantify, mostly under pKd 3.1 to 4
In the case of QYPGSPDSWV [PKP4, Q99569], the pKd is reported as “below the threshold”.
